Measured values reported in publication PMC3940202, “Structure of Bacillus subtilis γ-glutamyltranspeptidase in complex with acivicin: diversity of the binding mode of a classical and electrophilic active-site-directed glutamate analogue” (Acta Crystallographica Section D: Biological Crystallography, 2014).

Target: T1, Bacillus subtilis γ-glutamyltranspeptidase large (L) subunit (Bacillus subtilis, UniProt P54422 36-402)
T1 construct: γ-glutamyltranspeptidase (GGT; EC 2.3.2.2) of Bacillus subtilis, large subunit, residues 36-402, formed from the precursor by autocatalytic cleavage before Thr403; The range 36-402 is what it gives for the L subunit of the protein; The His-tag segment and residues 396-402 are disordered in the crystal; also called GGT L subunit; His6-GGT (large subunit); source: E. coli C41(DE3), plasmid pCold …
T1 sequence (looked up): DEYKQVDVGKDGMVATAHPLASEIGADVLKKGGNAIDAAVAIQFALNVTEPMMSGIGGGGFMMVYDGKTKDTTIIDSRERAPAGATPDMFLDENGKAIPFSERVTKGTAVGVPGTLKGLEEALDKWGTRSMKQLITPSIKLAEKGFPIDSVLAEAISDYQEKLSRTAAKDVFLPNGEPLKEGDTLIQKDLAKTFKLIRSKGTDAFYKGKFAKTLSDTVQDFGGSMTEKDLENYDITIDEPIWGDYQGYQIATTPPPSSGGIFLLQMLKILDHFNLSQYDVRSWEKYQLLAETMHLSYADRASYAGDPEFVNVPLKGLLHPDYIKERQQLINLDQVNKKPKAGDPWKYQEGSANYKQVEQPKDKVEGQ
Assay: crystal structure; micro-oil batch method at 293 K; 10 mg/ml protein in 50 mM HEPES pH 7.0 mixed with 26%(w/v) PEG 3350, 0.7 M sodium thiocyanate, 6%(v/v) ethylene glycol; crystals soaked 2 h in 5 mM acivicin; refined at 1.8 Å; one heterodimer in the asymmetric unit
Details: both partners purified

B1: Bacillus subtilis γ-glutamyltranspeptidase small (S) subunit (enzyme, UniProt P54422 403-587, looked up)
chain: TTHFTVADRWGNVVSYTTTIEQLFGTGIMVPDYGVILNNELTDFDAIPGGANEVQPNKRPLSSMTPTILFKDDKPVLTVGSPGGATIISSVLQTILYHIEYGMELKAAVEEPRIYTNSMSSYRYEDGVPKDVLSKLNGMGHKFGTSPVDIGNVQSISIDHENGTFKGVADSSRNGAAIGINLKRK
modifications: acivicin covalently bound through its C3 atom to Thr403 Oγ (crystal soaked for 120 min, PDB 3whs; not in the crystal without soaking, PDB 3whq)
notes: γ-glutamyltranspeptidase (GGT); Made as one His6-tagged precursor with the L subunit and processed autocatalytically; also called GGT S subunit
**Q.** Does B1 bind?
**A.** Result: binds
